Reference: patent US20100120700A1, “METHODS AND COMPOSITIONS FOR TREATING CERVICAL CANCER” (priority 2000, published 2010)
“Also recorded” adds a separate entry of the source.

T1: HPV16 E6/TIP 1 interaction (Homo sapiens, UniProt O14907)
T1 construct: made in house; host or cells: E. coli
T1 sequence (O14907 14-116): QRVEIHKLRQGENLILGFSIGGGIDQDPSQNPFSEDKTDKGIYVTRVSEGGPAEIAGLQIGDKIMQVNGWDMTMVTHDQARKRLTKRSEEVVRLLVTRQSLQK


How the values were obtained:
[1] = test system: c-JUN N-terminal kinase (JNK); assay: Jun kinase assay in microinjected Xenopus oocytes; assay type: cell-based; parameters: inhibition of HPV16 E6-dependent JNK activation by co-injected peptide: dose or concentration left out as unconfirmed; details: Xenopus oocytes; for JNK activation by microinjected E6 fusion protein: MBP-E6 or GST-E6 protein (100 nM, 3h), GST-Jun phosphorylation
Experimental: Experimental Design: This experiment was divided into two phases. In the first phase, an MBP-E6 fusion protein (HPV16; see example 4) was microinjected into Xenopus oocytes at different concetrations and then the oocytes were assayed for INK activity. In the second phase, peptides corresponding to the C-termini of non-oncogenic E6 protein (HPV11), HPV16 E6 (oncogenic) or Tax (shown to block oncogenic E6 binding to PDZ domains, FIG. 3) were co-injected with an activating amount of MBP-E6 fusion protein to assess ther abilities to block JNK activation.
Isolation and Microinjection of Oocytes—Xenopus ovarian tissue was surgically removed, and oocytes were defolliculated for 1-1.5 h at room temperature with 2 mg/ml collagenase and 0.5 mg/ml polyvinylpyrrolidone in Ca21-free modified Barth's solution (88 mM NaCl, 1 mM KCl, 0.82 mM MgSO4, 2.4 mM NaHCO3, 10 mM HEPES, pH 7.5). The oocytes were then washed four times with modified Barth's solution. Stage VI oocytes were sorted manually and incubated at 16° C. for at least 10 h in OR2 solution (82.5 mM NaCl, 2.5 mM KCl, 1 mM CaCl2, 1 mM Na2HPO4, 5 mM HEPES, pH 7.5) supplemented with 1 mg/ml bovine serum albumin and […] gentamicin. Immature oocytes were microinjected with purified MBP-E6 protein or E6 protein and peptide and transferred to fresh OR2 for the duration of the time course. Five oocytes were collected per time point, frozen on dry ice, and stored at −80° C.
Lysis of Oocytes, Eggs, and Embryos—Frozen oocytes, eggs, and embryos were thawed rapidly and lysed by pipetting up and down in 60 ml of ice-cold extraction buffer (EB) (0.25 M sucrose, 0.1 M NaCl, 2.5 mM MgCl2, 20 mM HEPES, pH 7.2) containing 10 mM EDTA, protease inhibitors (10 mg/ml leupeptin, 10 mg/ml pepstatin, 10 mg/ml aprotinin, 1 mM phenylmethylsulfonyl fluoride), and phosphatase inhibitors (50 mM 2-glycerophosphate, 1 mM sodium orthovanadate, 2 mM microcystin). Samples were clarified by centrifugation for 2.5 min in a Beckman E microcentrifuge with a right angle rotor. Crude cytoplasm was collected and processed for immunoblotting or kinase assays, as described below.
Jun Kinase Assay—Jun kinase assays were performed as described. Crude oocyte, egg, or embryo cytoplasm was diluted 1:1 in EB and pre-cleared with 20 ml of glutathione-Sepharose beads (Amersham Pharmacia Biotech) for 1 h at 4° C. with moderate shaking. Lysates were incubated with glutathione S-transferase GST-c-Jun-(1-79) fusion protein (hereafter denoted GST-Jun) immobilized on glutathione- Sepharose beads. After 3 h at 4° C., the beads were washed three times with 50 mM HEPES, pH 7.5, 150 mM NaCl, 1% Triton X-100, 1 mM EDTA, 10% glycerol, 10 mM sodium pyrophosphate, 2 mM sodium orthovanadate, 10 mM sodium fluoride, 1 mM phenylmethylsulfonyl fluoride, and 10 mg/ml aprotinin (24) and once with 0.4 ml of kinase buffer (20 mM HEPES, pH 7.5, 10 mM MgCl2, 1 mM dithiothreitol, 200 mM sodium orthovanadate). The bound JNK activity was detected by the addition of 1 mCi of [g-32]JATP. The reaction was terminated after 20 min at 30° C., and the products were resolved by SDS-PAGE. The gels were transferred to PVDF membranes (Hybond; Amersham Pharmacia Biotech) and the incorporation of [32P]phosphate into GST-Jun was visualized by autoradiography. […]

[2] = molecular target: T1, HPV16 E6/TIP 1 interaction; assay: Modified G assay, inhibition of TIP1-HPV E6 16 binding; details: HPV E6 16 peptide 10 uM, TIP1 fusion protein 5 ug/mL, Tax peptide 0.001-100 uM, FIG. 3
Experimental: In one embodiment (in which a G assay is used), one or more PDZ domain-containing GST-fusion proteins are bound to the surface of wells of a 96-well plate as described supra (with appropriate controls including nonfusion GST protein). All fusion proteins are bound in multiple wells so that appropriate controls and statistical analysis can be done. A test compound in BSA/PBS (typically at multiple different concentrations) is added to wells. Immediately thereafter, 30 uL of a detectably labeled (e.g., biotinylated) peptide known to bind to the relevant PDZ domain (see, e.g., TABLE 3) is added in each of the wells at a final concentration of, e.g., between about 2 uM and about 40 uM, typically 5 uM, 15 uM, or 25 uM. […] The surface is washed free of unbound peptide three times with ice cold PBS and the amount of binding of the peptide in the presence and absence of the test compound is determined. Usually, the level of binding is measured for each set of replica wells (e.g. duplicates) by subtracting the mean GST alone background from the mean of the raw measurement of peptide binding in these wells. […]
Protocol • 1. […] Take early readings, if necessary, at 650 nm • 17. At 30 minutes, stop reaction with 100 ul of 0.18M H2SO4, and take final reading at 450 nm […]

| Molecule | JNK activation by microinjected E6 fusion protein [1] | inhibition of binding between TIP1 and HPV E6 16 (A450) [2] | inhibition of binding between TIP1 and HPV E6 16 (A450) ([2]; listed as Tax peptide) | inhibition of HPV16 E6-dependent JNK activation by co-injected peptide ([1]; co-injected with activating amount of HPV16 E6 fusion protein) | JNK activation by microinjected E6 fusion protein ([1]; listed as HPV E6 16) |
| --- | --- | --- | --- | --- | --- |
| HPV18 E6: recombinant GST-E6 fusion protein of HPV18 microinjected into Xenopus oocytes | activated the JNK MAPK pathway in the oocyte | – | – | – | – |
| Tax PL peptide: unlabeled peptide corresponding to the C-terminus of Tax, an independent PDZ ligand that binds similar PDZ domains (QISPGGLEPPSEKHFRETEV) | – | decrease binding between TIP1 and HPV E6 16 | Inhibition of the interaction between HPV E6 16 and TIP1 | can be inhibited by co-injection | – |
| HPV16 E6: recombinant full length HPV16 E6 fusion protein (MBP-E6 or GST-E6) microinjected into Xenopus oocytes (protein) MHQKRTAMFQDPQERPRKLPQLCTELQTTIHDIILECVYCKQQLLRREVYDFAFRDLCIVYRDGNPYAVCDKCLKFYSKISEYRHYCYSLYGTTLEQQYNKPLCDLLIRCINCQKPLCPEEKQRHLDKKQRFHNIRGRWTGRCMSCCRSSRTRRETQL | activates c-JUN N-terminal kinase; also recorded: activated the JNK MAPK pathway in the oocyte | – | – | – | activates c-JUN N-terminal kinase (JNK) |
